Experimental data published in PMC7042059 (FEBS letters, 2019).
Where “and” joins values, the source holds several entries; their conditions need not be identical. Equal entries are not always repeated.

Target: the molecule itself
Assay: SEC

B1: PKM2 R399E (enzyme)
chain: not shown
stoichiometry N: 4 and 2
